Data as given in CN113912710A (SURE BIOTECH HANGZHOU LTD, dated 2022).

Experiments:
[1] = target: T1, SARS-CoV Nucleocapsid Protein(His Tag), 货号40143-V08B (SARS-CoV, UniProt P59595 1-422); experiment: ELISA, cross-reaction test
T1 construct: also called SARS病毒的N蛋白; SARS-CoV-NP

[2] = target: T2, MERS-CoV Nucleocapsid Protein(His Tag), 货号40068-V08B (MERS-CoV, UniProt K9N4V7 1-411); experiment: ELISA, cross-reaction test
T2 construct: also called MERS病毒的N蛋白; MERS-CoV-NP

B1: 单克隆抗体Mouse anti-SARS-COV-2 Mab4(NP-Ab) (antibody, V domains shown)
VH: VKLQESGPELKKPGETVRISCKASGYTLTDYSIHWVKQAPGKGLKWMGWINTETVEPTYTDDFKGRFAFSLETSASTAYLQINNLKNEDTATYFCASTGTEFDYWGQGTTLTVSS
VL: DVVMTQTPLSLPVSLGDQASISCRSSQSLVHITGNTYLHWYLQKPGQSPKLLIYKVSNRFSGVPDRFSGSGSGTDFTLKISRVEAEDLGVYFCSQSTHVPLTFGAGTKLELK
notes: also called A1-1; A1-1号抗体
B1: no binding [1]; no binding [2].
